B1: SCN1Bβ/WT (Navβ1b, sodium channel beta1b subunit) [human] / Kv4.3 (KCND3/WT) [human] (parent)
chain 1: GGCVEVDSETEAVYGMTFKILCISCKRRSETNAETFTEWTFRQKGTEEFVKILRYENEVLQLEEDERFEGRVVWNGSRGTKDLQDLSIFITNVTYNHSGDYECHVYRLLFFENYEHNTSVVKKIHIEVVDKGESGAACPFTVTHRRARWRDRWQAVDRTGWLCAWPANRPQQRAEGEGSSPSCPLQLWPLFLSSPRRGQSMPVPHRRSGYRTQLCHLCCMTSGRCLLSLSQRVVLGLPGIIIRCVSRGVV
chain 2: MAAGVAAWLPFARAAAIGWMPVANCPMPLAPADKNKRQDELIVLNVSGRRFQTWRTTLERYPDTLLGSTEKEFFFNEDTKEYFFDRDPEVFRCVLNFYRTGKLHYPRYECISAYDDELAFYGILPEIIGDCCYEEYKDRKRENAERLMDDNDSENNQESMPSLSFRQTMWRAFENPHTSTLALVFYYVTGFFIAVSVITNVVETVPCGTVPGSKELPCGERYSVAFFCLDTACVMIFTVEYLLRLFAAPSRYRFIRSVMSIIDVVAIMPYYIGLVMTNNEDVSGAFVTLRVFRVFRIFKFSRHSQGLRILGYTLKSCASELGFLLFSLTMAIIIFATVMFYAEKGSSASKFTSIPASFWYTIVTMTTLGYGDMVPKTIAGKIFGSICSLSGVLVIALPVPVIVSNFSRIYHQNQRADKRRAQKKARLARIRVAKTGSSNAYLHSKRNGLLNEALELTGTPEEEHMGKTTSLIESQHHHLLHCLEKTTGLSYLVDDPLLSVRTSTIKNHEFIDEQMFEQNCMESSMQNYPSTRSPSLSSHPGLTTTCCSRRSKKTTHLPNSNLPATRLRSMQELSTIHIQGSEQPSLTTSRSSLNLKADDGLRPNCKTSQITTAIISIPTPPALTPEGESRPPPASPGPNTNIPSIASNVVKVSAL

Here are results for 2 variants from paper PMC6201368.

The variants in this assay derive from B1. In words: co-immunoprecipitation (IP anti-KCND3, immunoblot anti-SCN1Bβ), band quantification. The note with it: with Kv4.3 (KCND3/WT) [human]; HEK293 cells co-transfected with KCND3/WT and SCN1Bβ; parent: 1; read off a plot. A general note: A western blot detects proteins with antibodies after separation by electrophoresis.
Turning to chain 1 R232T, the ratio to parent came out at 1.2.

In the case of chain 1 S230R, the ratio to parent amounted to 1.
